Test results published in US20070081975A1.

Target: recombinant human IL-18 (human) (UniProt Q14116)
Assay: cell-based or functional assay

recombinant human IL-18 (human), sequence (Q14116 37-193 limits assumed): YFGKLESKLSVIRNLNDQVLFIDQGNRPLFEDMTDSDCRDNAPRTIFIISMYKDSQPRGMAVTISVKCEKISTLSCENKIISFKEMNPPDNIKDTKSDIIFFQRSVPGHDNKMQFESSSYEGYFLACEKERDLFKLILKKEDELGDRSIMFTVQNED

## His6-tagged IL-18BPa transiently expressed in COS7 cells (IL-18BP-His6) (from UniProt O95998 31-194)
  IFN-γ (ng/ml); bioassay with human IL-18 (20 ng/ml), LPS (2 µg/ml) and murine splenocytes (control 7.5): 0 ng/mL

## PNGase-treated IL-18BP-His6 (deglycosylated IL-18BPa-His6) (from UniProt O95998 31-194)
  IFN-γ (ng/ml); bioassay with human IL-18 (20 ng/ml), LPS (2 µg/ml) and murine splenocytes (control 7.5): 0 ng/mL
